The values that follow come from US20230055408A1 (JIANGSU HENGRUI MEDICINE, published 2023).

The target of experiment [1] is T1, human CEA protein on the cell surface (human, UniProt P06731 35-685).
T1 sequence (looked up): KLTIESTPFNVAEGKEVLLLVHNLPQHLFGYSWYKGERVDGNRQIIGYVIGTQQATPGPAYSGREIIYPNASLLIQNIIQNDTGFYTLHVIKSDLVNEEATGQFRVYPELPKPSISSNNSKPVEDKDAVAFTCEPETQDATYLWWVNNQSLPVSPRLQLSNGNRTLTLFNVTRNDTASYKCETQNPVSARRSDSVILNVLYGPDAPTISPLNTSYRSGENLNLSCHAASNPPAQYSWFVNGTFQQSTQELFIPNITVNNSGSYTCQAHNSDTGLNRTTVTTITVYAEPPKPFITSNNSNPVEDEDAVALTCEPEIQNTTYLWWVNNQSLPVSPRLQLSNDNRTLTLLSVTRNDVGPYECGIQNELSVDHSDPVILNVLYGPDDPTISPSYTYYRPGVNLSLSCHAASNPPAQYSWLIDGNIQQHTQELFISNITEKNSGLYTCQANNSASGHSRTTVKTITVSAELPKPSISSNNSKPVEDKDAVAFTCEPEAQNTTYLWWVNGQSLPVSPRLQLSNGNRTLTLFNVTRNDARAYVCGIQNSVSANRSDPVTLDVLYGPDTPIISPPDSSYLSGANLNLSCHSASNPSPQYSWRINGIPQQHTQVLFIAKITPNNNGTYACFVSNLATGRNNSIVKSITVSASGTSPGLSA
The experiment is described as follows: cell-based or functional assay.

The target in experiment [2] is T2, monkey CEA expressed on CHO cell surface (cynomolgus monkey).
T2 construct: also called cynoCEA-CHO; monkey CEA proteins on the cell surface
T2 chain: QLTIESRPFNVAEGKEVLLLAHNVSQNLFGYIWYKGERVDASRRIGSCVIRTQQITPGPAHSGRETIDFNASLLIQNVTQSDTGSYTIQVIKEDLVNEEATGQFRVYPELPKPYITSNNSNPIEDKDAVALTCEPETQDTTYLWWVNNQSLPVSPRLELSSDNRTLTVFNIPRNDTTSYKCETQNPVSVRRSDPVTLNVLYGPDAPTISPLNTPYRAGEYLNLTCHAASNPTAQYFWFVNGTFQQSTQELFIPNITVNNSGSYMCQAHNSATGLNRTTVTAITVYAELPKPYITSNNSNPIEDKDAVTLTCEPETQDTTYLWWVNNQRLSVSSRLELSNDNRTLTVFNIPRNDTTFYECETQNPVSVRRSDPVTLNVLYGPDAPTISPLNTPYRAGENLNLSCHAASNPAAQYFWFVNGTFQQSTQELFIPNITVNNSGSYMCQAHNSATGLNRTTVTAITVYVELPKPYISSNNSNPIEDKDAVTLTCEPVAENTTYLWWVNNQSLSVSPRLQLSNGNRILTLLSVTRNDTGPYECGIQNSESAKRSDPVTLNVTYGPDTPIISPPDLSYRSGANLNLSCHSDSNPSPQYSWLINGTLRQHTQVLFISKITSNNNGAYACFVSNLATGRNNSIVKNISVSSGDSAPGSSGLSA
As to the kind of experiment: FACS, cynoCEA-CHO cells. As to the method: (§1) In order to detect the binding of the antibody to the CEA protein on the cell surface, the binding activity of the antibody was determined by FACS using cells expressing CEA on the cell surface. Cells were harvested and centrifuged at 400 g at 4° C. for 5 min. Pre-cooled PBS containing FBS at final concentration 10% was added, and the mixture was centrifuged at 400 g at 4° C. for 5 min; the procedures were repeated twice. The cells were seeded into a 96-well plate at 10⁵ cells/well, and 100 μL of gradient diluted antibody solution was added to each well. The plate was incubated at 4° C. for 60 min and centrifuged, and the supernatant was removed. 250 μL of pre-cooled PBS containing FBS at final concentration 10% was added to each well to resuspend the cells, and the suspension was centrifuged at 400 g at 4° C. for 5 min, followed by the removal of the supernatant; the procedures were repeated twice. 50 μL of 1:200 diluted secondary antibody Alexa Fluor@488 goat anti-human IgG (H+L) (Lifetechologies, Cat #A11013) was added. […] 250 μL of pre-cooled PBS containing FBS at final concentration 10% was added to each cell to resuspend the cells, and the suspension was centrifuged at 400 g at 4° C. for 5 min; the procedures were repeated twice. 100 μL of pre-cooled PBS was added to each well to resuspend the cells. The plate was analyzed by a flow cytometer (BD, FACSverse) for fluorescence signal values.
For orientation: Flow cytometry measures light scatter and fluorescence of single cells or particles in a stream.

Experiment [3] addresses T1, human CEA protein on the cell surface. As to the kind of experiment: FACS, MKN45 cells. Here is the method: as §1

B1: Hu67-14-2-A (DAR 6.41) (antibody, human IgG1, kappa, V domains shown)
VH: EVQLVQSGAEVKKPGESLKISCKGSGYSFTDYHMNWVKQMPGKGLEWMGDINPDIGGTSYNQNFKGKVTISVDKSISTAYLQWSSLKASDTAMYYCARWDFDSFANWGQGTLVTVSS
VL: DIQMTQSPSSLSASVGDRVTITCRASESVSIIGTNLIHWYQQKPGKAPKLLIYHASNLETGVPSRFSGSGSGTDFTLTISSLQPEDFATYYCLQSRKIPYTFGGGTKVEIKR
modifications: see heavy chain; linker-toxin 2-A coupled to cysteine thiols of the TCEP-reduced antibody; mean DAR 6.41 per antibody
B1: in experiment [1], the “IC50 of inhibition of cell proliferation, LS174T (with moderate CEA expression)” value stood at 9.24 nM and the “IC50 of inhibition of cell proliferation, MKN45 (with high CEA expression)” value (from here on “IC50 of inhibition … (with high CEA expression)”) stood at 3.33 nM.

B2: Hu67-9 (antibody, human IgG1, kappa, V domains shown)
VH: EVQLVQSGAEVKKPGESLKISCKGSGYSFTDYHMNWVRQMPGKGLEWMGDINPDIGGTSYNQNFKGQVTISADKSISTAYLQWSSLKASDTAMYYCARWDFDSFANWGQGTLVTVSS
VL: DIQMTQSPSSLSASVGDRVTITCRASESVSIIGTNLIHWYQQKPGKAPKLLIYHASNLETGVPSRFSGSGSGTDFTLTISSLQPEDFATYYCLQSRKIPYTFGGGTKVEIKR
For the molecule B2, the EC50 – broadly, the concentration needed to bring the measured effect to its halfway point – in experiment [2] was found to be 3.72 nM; in experiment [3] it was 3.75 nM.

B3: Hu67-14-2-A (DAR 4.28) (antibody, human IgG1, kappa, V domains shown)
VH: EVQLVQSGAEVKKPGESLKISCKGSGYSFTDYHMNWVKQMPGKGLEWMGDINPDIGGTSYNQNFKGKVTISVDKSISTAYLQWSSLKASDTAMYYCARWDFDSFANWGQGTLVTVSS
VL: DIQMTQSPSSLSASVGDRVTITCRASESVSIIGTNLIHWYQQKPGKAPKLLIYHASNLETGVPSRFSGSGSGTDFTLTISSLQPEDFATYYCLQSRKIPYTFGGGTKVEIKR
modifications: see heavy chain; linker-toxin 2-A coupled to cysteine thiols of the TCEP-reduced antibody; mean DAR 4.28 per antibody
B3: in experiment [1], the “IC50 of inhibition of cell proliferation, LS174T (with moderate CEA expression)” value worked out at 15.6 nM and the “IC50 of inhibition … (with high CEA expression)” value was found to be 9.39 nM.

B4: Hu67-5 (antibody, human IgG1, kappa, V domains shown)
VH: EVQLVQSGAEVKKPGASVKVSCKASGYTFTDYHMNWVRQAPGQRLEWMGDINPDIGGTSYNQNFKGRVTITRDTSASTAYMELSSLRSEDTAVYYCARWDFDSFANWGQGTLVTVSS
VL: DIVMTQSPSSLSASVGDRVTITCRASESVSIIGTNLIHWYQQKPGKPPKLLIYHASNLETGVPSRFSGSGSGTDFTLTISSLQPEDFATYYCLQSRKIPYTFGGGTKVEIKR
As for B4, the EC50 in experiment [2] is 3.5 nM; in experiment [3], 2.86 nM.

B5: Hu67-10 (antibody, human IgG1, kappa, V domains shown)
VH: EVQLVQSGAEVKKPGESLKISCKGSGYSFTDYHMNWVRQMPGKGLEWMGDINPDIGGTSYNQNFKGQVTISADKSISTAYLQWSSLKASDTAMYYCARWDFDSFANWGQGTLVTVSS
VL: DIVMTQSPSSLSASVGDRVTITCRASESVSIIGTNLIHWYQQKPGKPPKLLIYHASNLETGVPSRFSGSGSGTDFTLTISSLQPEDFATYYCLQSRKIPYTFGGGTKVEIKR
Consider B5, for which the EC50 in experiment [2] is 5.37 nM; in experiment [3], 3.19 nM.

B6: Hu67-1 (antibody, human IgG1, kappa, V domains shown)
VH: EVQLVQSGAEVKKPGASVKVSCKASGYTFTDYHMNWVRQAPGQRLEWMGDINPDIGGTSYNQNFKGRVTITRDTSASTAYMELSSLRSEDTAVYYCARWDFDSFANWGQGTLVTVSS
VL: DIVMTQSPDSLAVSLGERATINCRASESVSIIGTNLIHWYQQKPGQPPKLLIYHASNLETGVPDRFSGSGSGTDFTLTISSLQAEDVAVYYCLQSRKIPYTFGGGTKVEIKR
As for B6, the results for the EC50 in experiment [2] and in experiment [3] were 4.57 nM and 2.46 nM, respectively.

B7: Hu67-4 (antibody, human IgG1, kappa, V domains shown)
VH: EVQLVQSGAEVKKPGASVKVSCKASGYTFTDYHMNWVRQAPGQRLEWMGDINPDIGGTSYNQNFKGRVTITRDTSASTAYMELSSLRSEDTAVYYCARWDFDSFANWGQGTLVTVSS
VL: DIQMTQSPSSLSASVGDRVTITCRASESVSIIGTNLIHWYQQKPGKAPKLLIYHASNLETGVPSRFSGSGSGTDFTLTISSLQPEDFATYYCLQSRKIPYTFGGGTKVEIKR
Take B7: the EC50 in experiment [2] turned out to be 3.06 nM; in experiment [3], 3.25 nM.

B8: Hu47-14-2-A (DAR 6.6) (antibody, human IgG1, kappa, V domains shown)
VH: EVQLVQSGSELKKPGASVKVSCKASGYTFTTYGMSWVKQAPGQGLKWMGWINTYSGVPTYASDFKGRFVFSLDTSVSTAYLQISSLKAEDTAVYYCARRGNYGRWDFDVWGQGTTVTVSS
VL: EIVLTQSPDFQSVTPKEKVTITCSVSSTISSSNLHWYQQKPDQSPKPLIYGTSNLASGVPSRFSGSGSGTDYTLTINSLEAEDAATYYCQQWSIYPLTFGQGTKLEIKR
modifications: see heavy chain; linker-toxin 2-A coupled to cysteine thiols of the TCEP-reduced antibody; mean DAR 6.6 per antibody
With B8, in experiment [1], the “IC50 of inhibition of cell proliferation, LS174T (with moderate CEA expression)” value is 10.3 nM and the “IC50 of inhibition … (with high CEA expression)” value worked out at 6.58 nM.

B9: Hu63-13-2-A (DAR 3.97) (antibody, human IgG1, kappa, V domains shown)
VH: EVQLVQSGAEVKKPGASVKVSCKASGYTFTDFYMNWVRQAPGQGLEWMGDIFPKSGNTDYNRKFKDRVTMTRDTSTSTVYMELSSLRSEDTAVYYCARSGYGNYVFDYWGQGTLVTVSS
VL: DIQMTQSPSSLSASVGDRVTITCRTSQDINIYLNWYQQKPGKAPKLLIYYRSGLLSGVPSRFSGSGSGTDFTLTISSLQPEDFATYYCQQGNTLPPTFGGGTKVEIKR
modifications: see heavy chain; linker-toxin 2-A coupled to cysteine thiols of the TCEP-reduced antibody; mean DAR 3.97 per antibody
Take B9: in experiment [1], the “IC50 of inhibition of cell proliferation, LS174T (with moderate CEA expression)” value was found to be 19.8 nM and the “IC50 of inhibition … (with high CEA expression)” value was 34 nM.

B10: Hu63-13-2-A (DAR 6.29) (antibody, human IgG1, kappa, V domains shown)
VH: EVQLVQSGAEVKKPGASVKVSCKASGYTFTDFYMNWVRQAPGQGLEWMGDIFPKSGNTDYNRKFKDRVTMTRDTSTSTVYMELSSLRSEDTAVYYCARSGYGNYVFDYWGQGTLVTVSS
VL: DIQMTQSPSSLSASVGDRVTITCRTSQDINIYLNWYQQKPGKAPKLLIYYRSGLLSGVPSRFSGSGSGTDFTLTISSLQPEDFATYYCQQGNTLPPTFGGGTKVEIKR
modifications: see heavy chain; linker-toxin 2-A coupled to cysteine thiols of the TCEP-reduced antibody; mean DAR 6.29 per antibody
Regarding B10, in experiment [1], the “IC50 of inhibition of cell proliferation, LS174T (with moderate CEA expression)” value came out at 13.1 nM and the “IC50 of inhibition … (with high CEA expression)” value came out at 3.93 nM.

B11: Hu103-32-2-A (DAR 6.94) (antibody, human IgG1, lambda, V domains shown)
VH: EVQLVQSGSELKKPGASVKVSCKASGYTFTTYGVIWVRQAPGQGLEWMGWINTYSGVPTYASDFKGRFVFSLDTSVSTAYLQISSLKAEDTAVYYCARKKTLTTVTPWFAYWGQGTLVTVSS
VL: ELVLTQSPSASASLGASVKLTCTLSSQHSTYTIEWYQQQPEKGPRYVMELKKDGSHSTGEGIPDRFSGSSSGAERYLTISSLQSEDEADYYCGVGNTIKEQFVYVFGGGTKLTVLG
modifications: see heavy chain; linker-toxin 2-A coupled to cysteine thiols of the TCEP-reduced antibody; mean DAR 6.94 per antibody
Take B11: in experiment [1], the “IC50 of inhibition of cell proliferation, LS174T (with moderate CEA expression)” value was found to be 2.37 nM and the “IC50 of inhibition … (with high CEA expression)” value is 3 nM.

B12: Hu103-32-2-A (DAR 4.8) (antibody, human IgG1, lambda, V domains shown)
VH: EVQLVQSGSELKKPGASVKVSCKASGYTFTTYGVIWVRQAPGQGLEWMGWINTYSGVPTYASDFKGRFVFSLDTSVSTAYLQISSLKAEDTAVYYCARKKTLTTVTPWFAYWGQGTLVTVSS
VL: ELVLTQSPSASASLGASVKLTCTLSSQHSTYTIEWYQQQPEKGPRYVMELKKDGSHSTGEGIPDRFSGSSSGAERYLTISSLQSEDEADYYCGVGNTIKEQFVYVFGGGTKLTVLG
modifications: see heavy chain; linker-toxin 2-A coupled to cysteine thiols of the TCEP-reduced antibody; mean DAR 4.8 per antibody
On to B12, for which, in experiment [1], the “IC50 of inhibition of cell proliferation, LS174T (with moderate CEA expression)” value was 3.08 nM and the “IC50 of inhibition … (with high CEA expression)” value turned out to be 2.86 nM.
